Experimental data as given in patent publication US20150218551A1.

Target: LR1-C1 envelope protein (Env variant of HIV-1 AC10) on virions (HIV-1)
Experiment: virion capture assay: virions titrated on plates coated with 4E10, bound virus measured by p24 ELISA; reference AC10 wild-type virions

Substance: 4E10 antibody
- fold increase in affinity against the AC10 wild-type variant: 4 fold
